The text below walks through data of paper PMC8438039.

The target of the experiment is human Toll-like receptor 5 (hTLR5) on HEK-Blue hTLR5 cells (human) (UniProt O60602).
Chain of UniProt O60602 (O60602 21-858): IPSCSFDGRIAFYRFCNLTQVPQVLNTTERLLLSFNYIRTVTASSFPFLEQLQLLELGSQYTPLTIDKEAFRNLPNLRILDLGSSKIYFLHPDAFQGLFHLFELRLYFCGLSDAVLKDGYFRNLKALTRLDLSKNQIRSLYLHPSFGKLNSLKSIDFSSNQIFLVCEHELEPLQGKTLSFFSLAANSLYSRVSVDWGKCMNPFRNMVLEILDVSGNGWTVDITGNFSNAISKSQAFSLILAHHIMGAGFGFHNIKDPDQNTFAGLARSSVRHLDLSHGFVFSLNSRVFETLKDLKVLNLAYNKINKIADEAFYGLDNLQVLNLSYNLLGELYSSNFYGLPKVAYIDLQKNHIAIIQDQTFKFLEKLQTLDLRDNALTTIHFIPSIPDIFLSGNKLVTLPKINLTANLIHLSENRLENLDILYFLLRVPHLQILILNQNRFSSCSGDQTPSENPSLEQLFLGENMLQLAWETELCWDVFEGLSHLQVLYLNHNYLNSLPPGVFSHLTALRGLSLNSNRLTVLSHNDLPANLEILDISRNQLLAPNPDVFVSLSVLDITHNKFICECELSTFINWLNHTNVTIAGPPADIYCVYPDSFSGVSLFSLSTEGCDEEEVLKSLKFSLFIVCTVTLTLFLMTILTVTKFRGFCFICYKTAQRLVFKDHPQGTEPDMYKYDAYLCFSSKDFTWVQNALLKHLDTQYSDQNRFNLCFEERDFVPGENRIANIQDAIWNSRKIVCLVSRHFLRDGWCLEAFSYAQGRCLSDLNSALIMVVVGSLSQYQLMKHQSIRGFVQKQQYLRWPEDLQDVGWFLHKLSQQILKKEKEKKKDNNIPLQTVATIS
In turn, “D2D3 domain-depleted FlaB (FlaB^ΔD2D3) (natural protein)” had an EC50 of TLR5-dependent NF-κB activation in HEK-Blue hTLR5 cells (OD 620; 0.03719 nM to 76.16 nM protein) of 13.2 nM. “Vibrio vulnificus flagellin B (FlaB), wild type recombinant (natural protein)” returned an EC50 of TLR5-dependent NF-κB activation in HEK-Blue hTLR5 cells (OD 620; 0.03719 nM to 76.16 nM protein) of 4.18 nM. For “deimmunized FlaB (dFlaB), FlaB lacking residues 175-193 (natural protein)” the value was 9.01 nM.
